In PMC10683372:
Where “and” joins values, the source holds several entries; their conditions need not be identical. Equal entries are not always repeated. Bridge positions count the residues as written; N and C are the ends.

Key:
α‐thrombin (αT) = assay: enzyme inhibition (amidolytic activity on S2238)
[1] = target: recombinant wild type α‐thrombin; assay: other fluorescence titration; intrinsic fluorescence of thrombin (50 nM) at 334 nm recorded at increasing peptide concentration; TBS pH 7.4, 0.15 M NaCl, 0.1% PEG-8000, 25°C; one-site model
[2] = target: [F]‐Haem(45–57), N^α‐fluoresceinated analogue of the peptide 45–57 (Haemadipsa sylvestris); assay: other fluorescence titration; thrombin (S195A by the methods) or its hirudin complex added to the fluoresceinated peptide (60 nM); excitation 492 nm, emission 516 nm; TBS, 25°C
[3] = target: recombinant wild type α‐thrombin; assay: enzyme inhibition (amidolytic activity on S2238)

Which T m higher than hirudin does the source give for “H-IRFGMGKVPCPDGEVGYTCDCGEKICLYGQSCNDGQCSGDPKPSSEFEEFEIDEEEK-OH (disulfide 10-19, 21-32, 26-37)” here?
The T m higher than hirudin was 22 °C.

Which Ki (α‐thrombin (αT)) does the source give for Haem(1–10) wild type (peptide) here?
Its Ki is 1900 nM.

With Haem(45–57) (peptide) as the substance, how does the Kd [1] read?
Its Kd is 1600 nM.

Which Kd [2] does the source give for “catalytically inactive αT S195A mutant (enzyme)” here?
Its Kd is 350 nM.

For “full‐length haemadin Met5nLeu analogue (natural protein)”, which fold increase of KI(fast) against wild-type haemadin (α‐thrombin (αT)) is on record?
The fold increase of KI(fast) against wild-type haemadin was 2 fold.

What about the fold increase of KI(slow) against wild-type haemadin (α‐thrombin (αT)) of the same substance?
The fold increase of KI(slow) against wild-type haemadin was 2 fold.

Which Ki (α‐thrombin (αT)) does the source give for “full‐length wild‐type haemadin 1–57 (natural protein)” here?
Its Ki is 0.00023 nM and 0.0015 nM.

What about the Ki [3] of the same substance?
Its Ki is 0.000214 nM.

What about the koff [3] of the same substance?
The koff was 4.83e-05 s⁻¹.

What about the kon [3] of the same substance?
The kon was 2.25e+08 M⁻¹ s⁻¹.

For preformed S195A‐hirudin complex, which Kd [2] is on record?
Its Kd is 12800 nM.
